From patent US20240400654A1
Where “and” joins values, the source holds several entries; their conditions need not be identical. Identical values can stand only once.

B1: KB001 parental mouse Fab FASEBA variant VH K64H (Fab, V domains shown)
VH: EVQLKQSGPGLVAPSQSLSITCTVSGFSLSIYSVHWVRQPPGKGLEWLGMIWGGGSSDYNSALHSRLSISKDNSKSQVFLKMNSLQTDDTAMYYCARNGNFYAMDYWGQGTSVTVSS
VL: QIVLTQSPAIMSASLGERVTMTCTASSSVSSSFLHWYQQKPGSSPQLWIYSTSNLASGVPARFSGSGSGTSYSLTISSMEAEDAATYYCHQYHHSPYIYTFGGGTKLEIK
B2: KB001 parental mouse Fab FASEBA variant VH S65G (Fab, V domains shown)
VH: EVQLKQSGPGLVAPSQSLSITCTVSGFSLSIYSVHWVRQPPGKGLEWLGMIWGGGSSDYNSALKGRLSISKDNSKSQVFLKMNSLQTDDTAMYYCARNGNFYAMDYWGQGTSVTVSS
VL: QIVLTQSPAIMSASLGERVTMTCTASSSVSSSFLHWYQQKPGSSPQLWIYSTSNLASGVPARFSGSGSGTSYSLTISSMEAEDAATYYCHQYHHSPYIYTFGGGTKLEIK
B3: KB001 parental mouse Fab FASEBA variant VH S65R (Fab, V domains shown)
VH: EVQLKQSGPGLVAPSQSLSITCTVSGFSLSIYSVHWVRQPPGKGLEWLGMIWGGGSSDYNSALKRRLSISKDNSKSQVFLKMNSLQTDDTAMYYCARNGNFYAMDYWGQGTSVTVSS
VL: QIVLTQSPAIMSASLGERVTMTCTASSSVSSSFLHWYQQKPGSSPQLWIYSTSNLASGVPARFSGSGSGTSYSLTISSMEAEDAATYYCHQYHHSPYIYTFGGGTKLEIK
B4: KB001 parental mouse Fab FASEBA variant VH K64G (Fab, V domains shown)
VH: EVQLKQSGPGLVAPSQSLSITCTVSGFSLSIYSVHWVRQPPGKGLEWLGMIWGGGSSDYNSALGSRLSISKDNSKSQVFLKMNSLQTDDTAMYYCARNGNFYAMDYWGQGTSVTVSS
VL: QIVLTQSPAIMSASLGERVTMTCTASSSVSSSFLHWYQQKPGSSPQLWIYSTSNLASGVPARFSGSGSGTSYSLTISSMEAEDAATYYCHQYHHSPYIYTFGGGTKLEIK
B5: KB001 parental mouse Fab FASEBA variant VH K64M (Fab, V domains shown)
VH: EVQLKQSGPGLVAPSQSLSITCTVSGFSLSIYSVHWVRQPPGKGLEWLGMIWGGGSSDYNSALMSRLSISKDNSKSQVFLKMNSLQTDDTAMYYCARNGNFYAMDYWGQGTSVTVSS
VL: QIVLTQSPAIMSASLGERVTMTCTASSSVSSSFLHWYQQKPGSSPQLWIYSTSNLASGVPARFSGSGSGTSYSLTISSMEAEDAATYYCHQYHHSPYIYTFGGGTKLEIK
B6: KB001 parental mouse Fab FASEBA variant VH S65T (Fab, V domains shown)
VH: EVQLKQSGPGLVAPSQSLSITCTVSGFSLSIYSVHWVRQPPGKGLEWLGMIWGGGSSDYNSALKTRLSISKDNSKSQVFLKMNSLQTDDTAMYYCARNGNFYAMDYWGQGTSVTVSS
VL: QIVLTQSPAIMSASLGERVTMTCTASSSVSSSFLHWYQQKPGSSPQLWIYSTSNLASGVPARFSGSGSGTSYSLTISSMEAEDAATYYCHQYHHSPYIYTFGGGTKLEIK
B7: KB001 parental mouse Fab FASEBA variant VH S65F (Fab, V domains shown)
VH: EVQLKQSGPGLVAPSQSLSITCTVSGFSLSIYSVHWVRQPPGKGLEWLGMIWGGGSSDYNSALKFRLSISKDNSKSQVFLKMNSLQTDDTAMYYCARNGNFYAMDYWGQGTSVTVSS
VL: QIVLTQSPAIMSASLGERVTMTCTASSSVSSSFLHWYQQKPGSSPQLWIYSTSNLASGVPARFSGSGSGTSYSLTISSMEAEDAATYYCHQYHHSPYIYTFGGGTKLEIK
B8: KB001 parental mouse Fab FASEBA variant VH S65P (Fab, V domains shown)
VH: EVQLKQSGPGLVAPSQSLSITCTVSGFSLSIYSVHWVRQPPGKGLEWLGMIWGGGSSDYNSALKPRLSISKDNSKSQVFLKMNSLQTDDTAMYYCARNGNFYAMDYWGQGTSVTVSS
VL: QIVLTQSPAIMSASLGERVTMTCTASSSVSSSFLHWYQQKPGSSPQLWIYSTSNLASGVPARFSGSGSGTSYSLTISSMEAEDAATYYCHQYHHSPYIYTFGGGTKLEIK
B9: KB001 parental mouse Fab FASEBA variant VH S65H (Fab, V domains shown)
VH: EVQLKQSGPGLVAPSQSLSITCTVSGFSLSIYSVHWVRQPPGKGLEWLGMIWGGGSSDYNSALKHRLSISKDNSKSQVFLKMNSLQTDDTAMYYCARNGNFYAMDYWGQGTSVTVSS
VL: QIVLTQSPAIMSASLGERVTMTCTASSSVSSSFLHWYQQKPGSSPQLWIYSTSNLASGVPARFSGSGSGTSYSLTISSMEAEDAATYYCHQYHHSPYIYTFGGGTKLEIK
B10: KB001 parental mouse Fab FASEBA variant VH K64D (Fab, V domains shown)
VH: EVQLKQSGPGLVAPSQSLSITCTVSGFSLSIYSVHWVRQPPGKGLEWLGMIWGGGSSDYNSALDSRLSISKDNSKSQVFLKMNSLQTDDTAMYYCARNGNFYAMDYWGQGTSVTVSS
VL: QIVLTQSPAIMSASLGERVTMTCTASSSVSSSFLHWYQQKPGSSPQLWIYSTSNLASGVPARFSGSGSGTSYSLTISSMEAEDAATYYCHQYHHSPYIYTFGGGTKLEIK
B11: KB001 parental mouse Fab FASEBA variant VH K64E (Fab, V domains shown)
VH: EVQLKQSGPGLVAPSQSLSITCTVSGFSLSIYSVHWVRQPPGKGLEWLGMIWGGGSSDYNSALESRLSISKDNSKSQVFLKMNSLQTDDTAMYYCARNGNFYAMDYWGQGTSVTVSS
VL: QIVLTQSPAIMSASLGERVTMTCTASSSVSSSFLHWYQQKPGSSPQLWIYSTSNLASGVPARFSGSGSGTSYSLTISSMEAEDAATYYCHQYHHSPYIYTFGGGTKLEIK
B12: KB001 parental mouse Fab FASEBA variant VH S65Y (Fab, V domains shown)
VH: EVQLKQSGPGLVAPSQSLSITCTVSGFSLSIYSVHWVRQPPGKGLEWLGMIWGGGSSDYNSALKYRLSISKDNSKSQVFLKMNSLQTDDTAMYYCARNGNFYAMDYWGQGTSVTVSS
VL: QIVLTQSPAIMSASLGERVTMTCTASSSVSSSFLHWYQQKPGSSPQLWIYSTSNLASGVPARFSGSGSGTSYSLTISSMEAEDAATYYCHQYHHSPYIYTFGGGTKLEIK
B13: KB001 parental mouse Fab FASEBA variant VH S65L (Fab, V domains shown)
VH: EVQLKQSGPGLVAPSQSLSITCTVSGFSLSIYSVHWVRQPPGKGLEWLGMIWGGGSSDYNSALKLRLSISKDNSKSQVFLKMNSLQTDDTAMYYCARNGNFYAMDYWGQGTSVTVSS
VL: QIVLTQSPAIMSASLGERVTMTCTASSSVSSSFLHWYQQKPGSSPQLWIYSTSNLASGVPARFSGSGSGTSYSLTISSMEAEDAATYYCHQYHHSPYIYTFGGGTKLEIK
B14: KB001 parental mouse Fab FASEBA variant VH K64L (Fab, V domains shown)
VH: EVQLKQSGPGLVAPSQSLSITCTVSGFSLSIYSVHWVRQPPGKGLEWLGMIWGGGSSDYNSALLSRLSISKDNSKSQVFLKMNSLQTDDTAMYYCARNGNFYAMDYWGQGTSVTVSS
VL: QIVLTQSPAIMSASLGERVTMTCTASSSVSSSFLHWYQQKPGSSPQLWIYSTSNLASGVPARFSGSGSGTSYSLTISSMEAEDAATYYCHQYHHSPYIYTFGGGTKLEIK
B15: KB001 parental mouse Fab FASEBA variant VH K64Q (Fab, V domains shown)
VH: EVQLKQSGPGLVAPSQSLSITCTVSGFSLSIYSVHWVRQPPGKGLEWLGMIWGGGSSDYNSALQSRLSISKDNSKSQVFLKMNSLQTDDTAMYYCARNGNFYAMDYWGQGTSVTVSS
VL: QIVLTQSPAIMSASLGERVTMTCTASSSVSSSFLHWYQQKPGSSPQLWIYSTSNLASGVPARFSGSGSGTSYSLTISSMEAEDAATYYCHQYHHSPYIYTFGGGTKLEIK

Key:
[1] = target: HRgpA-6H (Porphyromonas gingivalis) (UniProt P28784); experiment: ELISA, FASEBA screening, coated HRgpA-6H 0.0625 ug/ml
Sequence of UniProt P28784 (P28784 228-860): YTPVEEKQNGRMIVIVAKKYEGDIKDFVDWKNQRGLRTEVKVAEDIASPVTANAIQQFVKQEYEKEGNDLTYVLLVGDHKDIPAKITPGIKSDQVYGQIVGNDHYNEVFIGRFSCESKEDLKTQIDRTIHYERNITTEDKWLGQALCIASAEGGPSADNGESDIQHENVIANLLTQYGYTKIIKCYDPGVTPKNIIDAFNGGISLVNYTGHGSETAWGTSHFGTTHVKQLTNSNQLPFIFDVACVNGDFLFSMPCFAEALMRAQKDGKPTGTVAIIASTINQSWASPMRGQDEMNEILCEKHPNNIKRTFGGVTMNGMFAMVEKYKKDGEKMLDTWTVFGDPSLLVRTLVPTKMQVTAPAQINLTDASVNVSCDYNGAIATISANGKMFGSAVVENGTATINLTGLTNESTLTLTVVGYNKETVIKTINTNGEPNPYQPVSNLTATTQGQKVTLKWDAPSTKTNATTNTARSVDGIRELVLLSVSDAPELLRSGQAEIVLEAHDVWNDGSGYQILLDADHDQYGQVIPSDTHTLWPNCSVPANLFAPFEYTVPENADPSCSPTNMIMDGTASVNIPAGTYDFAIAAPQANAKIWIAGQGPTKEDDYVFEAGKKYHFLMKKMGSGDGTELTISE

[2] = target: HRgpA-6H (Porphyromonas gingivalis) (UniProt P28784); experiment: ELISA, FASEBA screening, coated HRgpA-6H; variant OD over parental WT Fab OD

Binder	OD450 nm [1]	Ratio OD(Variant)/OD(WT) [2]
B1	0.788 and 0.806 and 0.73	0.953 and 0.975 and 0.883
B2	0.825	0.998
B3	0.794	0.96
B4	0.811	0.981
B5	0.784	0.948
B6	0.759	0.918
B7	0.74	0.895
B8	0.814	0.984
B9	0.823 and 0.767	0.995 and 0.927
B10	0.781	0.944
B11	0.789	0.954
B12	0.724	0.875
B13	0.728	0.88
B14	0.664	0.803
B15	0.789	0.954
